Reference: US20100004432, “APTAMER AGAINST MIDKINE AND USE THEREOF” (RIBOMIC INC., published 2010)

T1: midkine (full-length) (Homo sapiens, UniProt P21741 P21741:23-143)
T1 sequence: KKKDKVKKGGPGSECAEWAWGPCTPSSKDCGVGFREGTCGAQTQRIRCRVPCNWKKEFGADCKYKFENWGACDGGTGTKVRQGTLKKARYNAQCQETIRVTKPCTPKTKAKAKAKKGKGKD


Key:
Conditions in all cases: tags: expressed in yeast
[1] = target: T1, midkine (full-length); assay: cell_activity; 100 nM RNA
Procedure: (§1) 30 μL of 1.5 μM midkine was applied to the outer surface of the membrane of Chemotaxicell (membrane pore diameter 8 μm, manufactured by Kurabo) to immobilize the midkine to the outer surface of the membrane. The midkine-immobilized Chemotaxicell was placed on a 24-well culture plate containing 500 μL of a medium (supplemented with 0.3% bovine serum albumin, Dulbecco's Modified Eagle's medium) supplemented with each RNA aptamer added thereto at 100 nM. 200 μL of UMR106 cells were placed in the inner layer of the Chemotaxicell chamber at a density of 1×10⁶ cells/mL, and cultured at 37° C. for 4 hours. The cells remaining in the inner layer of the Chemotaxicell chamber were removed, and the cells that had infiltrated and adhered to the midkine-applied surface were fixed with methanol. The Chemotaxicell chamber was immersed in a 1% aqueous solution of Crystal Violet for 30 minutes to stain the cells. After the Chemotaxicell chamber was washed with distilled water and dried, the pigment was extracted with a mixed solution of 200 μL of 1% SDS and 1% triton X100. 150 μL of the extract was transferred to a 96-well microplate, and its absorbance at 590 nm was determined.
(§2) The aptamer shown by SEQ ID NO:5 is 77 nucleotides long, having the 2′-position of the ribose of the pyrimidine nucleotide fluoro-substituted. To enable the chemical synthesis, to reduce the toxicity, and to improve the stability in the blood, miniaturization and stabilization of this aptamer were performed. The operations of miniaturization and stabilization were performed on the basis of the secondary structure estimated by the MFOLD program, and the activity was evaluated by a cell migration inhibition experiment. The RNA concentration in the cell migration inhibition experiment was 100 nM or 500 nM. Since some errors occur in experimental results depending on cell condition, a previously assayed sample was included as a positive control in each measurement.

[2] = target: T1, midkine (full-length); assay: cell_activity; UMR106 migration inhibition, 500 nM RNA
Procedure: as §1, §2

[3] = target: T1, midkine (full-length); assay: cell_activity; 500 nM RNA
Procedure: as §1, with “Chem. 276 (19), 15868-15875, 2001). […] 30 μL” for “30 μL”
as §2, with “SEQ ID NO:4 is 77” for “SEQ ID NO:5 is 77”, “having the 2′ position of the” for “having the 2′-position of the”, “pyrimidine nucleotide thereof fluoro-substituted. To” for “pyrimidine nucleotide fluoro-substituted. To”, “inhibition experiment. In the cell” for “inhibition experiment. The RNA concentration in the cell”, “migration inhibition experiment, the RNA concentration was 100” for “migration inhibition experiment was 100”

[4] = target: T1, midkine (full-length); assay: cell_activity; UMR106 migration inhibition, 500 nM RNA; remark: listed apart in the source
Procedure: as §1, with “Chem. 276 (19), 15868-15875, 2001). […] 30 μL” for “30 μL”
as §2, with “SEQ ID NO:4 is 77” for “SEQ ID NO:5 is 77”, “having the 2′ position of the” for “having the 2′-position of the”, “pyrimidine nucleotide thereof fluoro-substituted. To” for “pyrimidine nucleotide fluoro-substituted. To”, “inhibition experiment. In the cell” for “inhibition experiment. The RNA concentration in the cell”, “migration inhibition experiment, the RNA concentration was 100” for “migration inhibition experiment was 100”

Binder	activity [2]	activity [4]	also measured
SEQ ID NO:32 (ssRNA, 2'-F pyrimidines) RNA: GGGAGAGGAGAAGAGGAAGUGUGCACAGGGGUUGGUGUCGGGUGCAUACAGUAUAAG			activity [1]: 100 % of SEQ 5 inhibition
SEQ ID NO:30 (ssRNA, 2'-F pyrimidines) RNA: GGAGAAGAGGAAGUGUGCACAGGGGUUGGUGUCGGGUGCAUACAGUAUAAGAUAGAGGACAGGAAUGAGGA			activity [1]: 44 % of SEQ 5 inhibition
GGGAAGGAGGAAGUGCACAGGGGUUGGUGUCGGGUGCAC (ssRNA, g(F)g(F)g(F)a(M)a(M)g(F)g(F)a(M)g(F)g(F)a(M)a(M)g(M)u(F)g(M)c(F)a(M)c(F)a(M)g(F)g(M)g(M)g(M)u(F)u(F)g(M)g(M)u(F)g(M)u(F)c(F)g(F)g(F)g(M)u(F)g(M)c(F)a(M)c(F); M 2'-OMe, F 2'-F) [SEQ ID NO:61-3]	80 % of SEQ ID NO:40		
GGGAAGGAGGAAGUGCACAGGGGUUGGUGUCGGGUGCAC (ssRNA, as 61-4 plus 5' branched PEG40k and 3' idT) [SEQ ID NO:61-5]	40 % of SEQ ID NO:40		
GGGAAGGAGGAAGUGCACAGGGGUUGGUGUCGGGUGCAC (ssRNA, ggga(M)a(M)gga(M)gga(M)a(M)g(M)u(F)g(M)c(F)a(M)c(F)aggg(M)g(M)u(F)u(F)g(M)g(M)u(F)g(M)u(F)c(F)gggu(F)g(M)c(F)a(M)c(F); M 2'-OMe, F 2'-F) [SEQ ID NO:61-4]	86 % of SEQ ID NO:40		
GGGAAGGAGGAAGUGCACAGGGGUUGGUGUCGGGUGCAC (ssRNA, as 61-4 plus PEG30k at both ends) [SEQ ID NO:61-6]	57 % of SEQ ID NO:40		
GGGAAGGAGGAAGUGCACAGGGGUUGGUGUCGGGUGCAC (ssRNA, as 61-4 but a(M)g(M)gg(M)g(M) in place of aggg(M)g(M)) [SEQ ID NO:61-8]	54 % of SEQ ID NO:40		
GGGAAGGAGGAAGUGCACAGGGGUUGGUGUCGGGUGCAC (ssRNA, as 61-4 plus 2'-OMe: c(F)g(M)g(M)gu(F) near 3' end) [SEQ ID NO:61-7]	46 % of SEQ ID NO:40		
SEQ ID NO:33 (ssRNA, 2'-F pyrimidines) RNA: GGAGAAGAGGAAGUGUGCACAGGGGUUGGUGUCGGGUGCAUACAGUAUAAGAUAGAGGACA			activity [1]: 40 % of SEQ 5 inhibition
GGGAGAGGAACGACGAGGAGUAGCCGGAAAGAAGGCGGCGUC (ssRNA, 2'-F pyrimidines) [SEQ ID NO:20]			activity [3]: 97 % of SEQ 4 inhibition
GGGAGAGGAACGACGAGGAGUAGCCGGAAAGAAGGCGGCGUC (ssRNA, 2'-F pyrimidines; 20-1 pattern plus 2'-OMe A in loop: gga(M)aa(M)gaagg) [SEQ ID NO:20-7]		88 % of SEQ ID NO:4	
GGGAGAGGAACGACGAGGAGUAGCCGGAAAGAAGGCGGCGUC (ssRNA, 2'-F pyrimidines; 20-5 pattern plus 2'-OMe A in loop: gga(M)aa(M)gaagg) [SEQ ID NO:20-8]		99 % of SEQ ID NO:4	
GGGAGAGGAACGACGAGGAGUAGCCGGAAAGAAGGCGGCGUC (ssRNA, 2'-F pyrimidines; 2'-OMe purines of first stem: gggagaggaac(F)g(M)a(M)c(F)g(M)aggagu(F)agc(F)c(F)ggaaagaaggc(F)ggc(F)g(M)u(F)c(F)) [SEQ ID NO:20-2]		84 % of SEQ ID NO:4	
GGGAGAGGAACGACGAGGAGUAGCCGGAAAGAAGGCGGCGUC (ssRNA, 2'-F pyrimidines; 2'-OMe on all purines of the 5' single-stranded part g1-a10) [SEQ ID NO:20-1]		109 % of SEQ ID NO:4	
GGGAGAGGAACGACGAGGAGUAGCCGGAAAGAAGGCGGCGUC (ssRNA, 2'-F pyrimidines; 20-5 pattern plus 2'-OMe: c(F)g(M)a(M)c(F), gga(M)aa(M)gaagg, c(F)g(M)g(M)c(F)g(M)u(F)c(F)) [SEQ ID NO:20-11]		76 % of SEQ ID NO:4	
GGGAGAGGAACGACGAGGAGUAGCCGGAAAGAAGGCGGCGUC (ssRNA, 2'-F pyrimidines; 20-5 pattern plus 2'-OMe first stem: c(F)g(M)a(M)c(F)g and 3' g(M)u(F)c(F)) [SEQ ID NO:20-9]		130 % of SEQ ID NO:4	
GGGAGAGGAACGACGAGGAGUAGCCGGAAAGAAGGCGGCGUC (ssRNA, 2'-F pyrimidines; 2'-OMe purines of second stem: gggagaggaac(F)gac(F)gaggagu(F)ag(M)c(F)c(F)ggaaagaag(M)g(M)c(F)ggc(F)gu(F)c(F)) [SEQ ID NO:20-3]		60 % of SEQ ID NO:4	
GGGAGAGGAACGACGAGGAGUAGCCGGAAAGAAGGCGGCGUC (ssRNA, 2'-F pyrimidines; 20-5 pattern plus 2'-OMe near 3' end: ggc(F)g(M)g(M)c(F)gu(F)c(F)) [SEQ ID NO:20-10]		86 % of SEQ ID NO:4	
GGGAGAGGAACGACGAGGAGUAGCCGGAAAGAAGGCGGCGUC (ssRNA, 2'-F pyrimidines; 20-5 pattern plus 2'-OMe: c(F)g(M)a(M)c(F), gga(M)aa(M)g(M)aagg, 3' g(M)u(F)c(F)) [SEQ ID NO:20-12]		53 % of SEQ ID NO:4	
